Data set [1] deals with HER2-overexpressing BT474 cells. Put plainly: pRNA nanoparticle cellular uptake assay (confocal, flow cytometry), BT474. Format: cell-based, human. As to conditions: for cellular uptake by flow cytometry: BT474, 3 h incubation at 37° C.; for binding and internalization into cells: BT474, AF647-conjugated, 10 μg/mL, confocal microscopy. As to the method: FIG. 2A) Confocal microscopy analyses of the internalization of AF647-labeled control and pRNA-HER2apt-siMED1 nanoparticles by BT474 cells. Scale bar: 10 μm. FIG. 2B) Flow cytometry assays of the cellular uptake of AF647-labeled control and pRNA-HER2apt-siMED1 nanoparticles by BT474 cells. FIG. 2C) IVIS Lumina live imaging of BT474 orthotopic xenograft mice 24 hrs after i.v. injection of indicated AF647-labeled pRNA nanoparticles (10 mg/Kg). FIG. 2D) Major organs and tumors of above mice were excised and imaged for AF647 fluorescence. FIG. 2E) Frozen tumor sections were examined for localization of AF647-labeled pRNA nanoparticles (red) using confocal microscopy. The blood vessels were stained with anti-CD31 primary antibody and Alexa488-conjugated secondary antibody (green). The nuclei were stained with DAPI (blue). Scale bar: 50 μm. FIG. 2F) The fluorescence intensity of AF647-labeled pRNA nanoparticles (red) in frozen tumor sections was quantified with Image-pro Plus software.
Cell culture. Human breast cancer luciferase-overexpressing BT474 and MDA-MB-231 cells were maintained in DMEM medium (Hyclone, Thermo Scientific) supplemented with 10% fetal bovine serum (FBS, Sigma) and 1% penicillin/streptomycin (Corning) at 37° C. in a humidified atmosphere with 5% CO2.^53 • Generation of pRNA nanoparticles. The two strands of pRNA were synthesized with the DNA templates, which were amplified with overlapping primers (Sigma) by PCR methods, using a T7 promoter-controlled in vitro RNA transcription system as previously described^33 (Table 1). All the CTP and UTP used for synthesis of the pRNA nanoparticles were 2′-fluoro modified, except the control unmodified pRNA nanoparticles used in the stability assays. Following an overnight transcription at 37° C., RNA strands were purified using RNA clean and concentrator kits (ZYMO research) and examined by 8 M urea denatured 8% PAGE gel. pRNA nanoparticles were assembled by mixing the equal molar amounts of p1 and p2 strands and gradually annealing from 90° C. to 20° C. in 1×RNA annealing buffer containing 50 mM Tris-HCl (pH 7.5), 50 mM NaCl and 1 mM EDTA on a PCR machine. […] The hydrodynamic diameter and Tm value of pRNA nanoparticles were determined using dynamic light scattering and TGGE assay, respectively, as previously described.^54 The AFM imaging of the pRNA nanoparticles was performed at the University of Nebraska Medical Center imaging facility as previously reported.^55 Briefly, the pRNA nanoparticles (5 μL) were deposited on APS modified mica ^56 for a total of 2 min of incubation time. […]

A further data set deals with MED1. Put plainly: MED1 protein level by western blots in MCF-7/TAM cells. Format: cell-based, human. As to conditions: 10 μg/mL, 48 h. As to the method: FIGS. 10A-10D. Evidence that pRNA-HER2apt-siMED1 nanoparticles silenced MED1 expression and sensitized two other HER2+ breast cancer cells to tamoxifen treatment. FIG. 10A) Two HER2-overexpressing breast cancer cell lines MCF7/TAM and FIG. 10B) MCF7/HER2, were treated with 10 μg/mL pRNA-HER2apt-siMED1 nanoparticles or scramble control for 48 h, and then MED1 protein level was determined using western blots. FIG. 10C) MCF7/TAM and FIG. 10D) MCF7/HER2 cells were treated with 10 μg/mL pRNA nanoparticles and/or 1 μM tamoxifen (TAM) as indicated for 48 h, and then cell growth was determined using an MTT assay.
Next, the ability of pRNA-HER2apt-siMED1 nanoparticles to silence the expression of MED1 in BT474 and MDA-MB-231 human breast cancer cells was examined. Using real-time PCR analyses, a significant depletion of nearly 70% of MED1 mRNA in BT474 cells after pRNA-HER2apt-siMED1 but not pRNA-HER2apt^mut-siMED1 treatment was found (FIG. 3A).

Experimental findings from patent US11110182B2, “Multifunctional RNA nanoparticles and methods for treating cancer and therapeutic resistant cancer” (University of Cincinnati, priority 2016, dated 2021) are described below.

B1: pRNA-HER2apt-siMED1: 3-WJ pRNA nanoparticle bearing a HER2-targeting RNA aptamer and two different MED1 siRNAs; strands p1 SEQ ID NO: 3, p2 SEQ ID NO: 4 (nucleic acid)
chain 1: GGACAGUGAAAGUGAGUCAAAGGAUCAAUCAUGGCCAAAGAUGUUACUUUGAGAGCCUU
chain 2: GGCUCUCAAAGUAACAUCUAAGGCCAUGUGUAUGUGGGGGGAGGACGAUGCGGUCUGCUGUGCUUGAUAUGCCCCAGACGACUCGCCCCCCACAUACUUUGUUGAUCCAAUGACUCACUUUCACUGUCCUU
modifications: 2'-F modification; third strand may lack entry; pRNA-HER2apt-siMED1, p1; pRNA-HER2apt-siMED1, p2
Consider B1, for which, in data set [1], the “cellular uptake by flow cytometry” value is “effectively taken up”; the “binding and internalization into cells” value is “can bind and be readily internalized”. Besides, the MED1 silencing entry in the data set with MED1 is “confirmed”.

B2: pRNA-HER2apt^mut-siMED1: control pRNA nanoparticle with mutant HER2 aptamer; strands p1 SEQ ID NO: 5, p2 SEQ ID NO: 6 (nucleic acid)
chain 1: B1 chain 1
chain 2: GGCUCUCAAAGUAACAUCUAAGGCCAUGUGUAUGUGGGAUGAGGAGUAUGAAGAUACCUGUACUUGAUAUGCCCCAGACGACAUUCCCCCCACAUACUUUGUUGAUCCAAUGACUCACUUUCACUGUCCUU
modifications: pRNA-HER2apt(mut)-siMED1, p1; pRNA-HER2apt(mut)-siMED1, p2
Consider B2, for which, in data set [1], the “cellular uptake by flow cytometry” value is given as “notably decreased the uptake efficiency”; the “binding and internalization into cells” value is “dramatically impaired”.
